Measured values published in patent publication US20160115200A1 (published 2016).
Square brackets hold non-standard residues; d marks the D form. Ends that are not written are not given here.

How the values were obtained:
[1] = target: T1, His-JNK1 (ref 14-327, Upstate) (UniProt P45983 1-384); experiment: kinase inhibition
[2] = target: T2, His-JNK3 (ref 14-501, Upstate) (UniProt P53779 1-422); experiment: kinase inhibition
[3] = target: T1, His-JNK1 (ref 14-327, Upstate); experiment: JNK inhibition assay
[4] = target: T2, His-JNK3 (ref 14-501, Upstate); experiment: JNK inhibition assay

T2 sequence (P53779 other isoform, or with tags, fused parts or gaps): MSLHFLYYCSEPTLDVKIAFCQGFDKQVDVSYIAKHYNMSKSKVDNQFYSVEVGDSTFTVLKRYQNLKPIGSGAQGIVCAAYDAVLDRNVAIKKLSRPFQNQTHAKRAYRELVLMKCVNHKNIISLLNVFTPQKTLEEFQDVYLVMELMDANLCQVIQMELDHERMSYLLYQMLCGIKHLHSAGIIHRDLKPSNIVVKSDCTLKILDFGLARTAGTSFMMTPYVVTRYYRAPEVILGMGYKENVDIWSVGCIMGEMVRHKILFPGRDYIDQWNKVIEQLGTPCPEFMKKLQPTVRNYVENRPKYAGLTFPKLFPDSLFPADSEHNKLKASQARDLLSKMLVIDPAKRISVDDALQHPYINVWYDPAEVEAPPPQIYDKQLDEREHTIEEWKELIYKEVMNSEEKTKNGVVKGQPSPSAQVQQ
T1 sequence (P45983 other isoform, or with tags, fused parts or gaps): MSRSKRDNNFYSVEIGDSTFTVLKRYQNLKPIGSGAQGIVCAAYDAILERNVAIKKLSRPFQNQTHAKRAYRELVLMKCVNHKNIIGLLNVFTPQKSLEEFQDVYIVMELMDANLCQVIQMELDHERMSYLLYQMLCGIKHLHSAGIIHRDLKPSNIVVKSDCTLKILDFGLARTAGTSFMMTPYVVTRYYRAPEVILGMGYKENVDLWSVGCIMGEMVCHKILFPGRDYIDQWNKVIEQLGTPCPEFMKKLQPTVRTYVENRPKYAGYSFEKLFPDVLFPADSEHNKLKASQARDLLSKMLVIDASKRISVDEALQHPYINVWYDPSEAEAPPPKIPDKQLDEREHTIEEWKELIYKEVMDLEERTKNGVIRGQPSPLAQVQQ

Binder | IC50 [1] | IC50 [2] | IC50 [3] | IC50 [4]
[dR]KKR[dR]QRR[dR]RPTTLNL[dF] [SEQ ID NO: 174] | 334 nM | 63.1 nM | – | –
[dR]KKR[dR]QRR[dR]RP[dK]RPTTLNL[dW] [SEQ ID NO: 176] | 131 nM | 22.4 nM | – | –
GRKKRRQRRRPTTLNLFPQVPRSQD [SEQ ID NO: 195] | 10.8 nM | 4.92 nM | – | –
[dR]KKR[dR]QRR[dR]RP[dK]AA[dA]AANA[dF] [SEQ ID NO: 200] | – | 3820 nM | – | –
[dR]KKR[dR]QRR[dR]RP[dK]RP[dQ]TLNL[dF] [SEQ ID NO: 186] | 1020 nM | 44.2 nM | – | –
[dR]KKR[dR]QR[dR]RPTTL[dR]L[dW] [SEQ ID NO: 179] | 249 nM | 45.7 nM | – | –
[dR]KKR[dR]QRR[dR]RPTTL[dR]L[dW] [SEQ ID NO: 178] | 329 nM | 30.4 nM | – | –
[dR]KKR[dR]QRR[dR]RKAL[dR]L[dF] [SEQ ID NO: 190] | 8970 nM | 159 nM | – | –
RPKRPTTL[dR]LF [SEQ ID NO: 6] | – | – | 90.5 nM | 120 nM
[dR]KKR[dR]QRR[dR]RP[dK]RPTDLNL[dF] [SEQ ID NO: 177] | 355 nM | 45.4 nM | – | –
[dR]KKR[dR]QRR[dR]RP[dK]RP[dK]TLNL[dF] [SEQ ID NO: 187] | 594 nM | 25.4 nM | – | –
GRKKRRQRRRPPKRPTTLNLFPQVPRSQD [SEQ ID NO: 194] | 14 nM | 2.59 nM | – | –
[dR]KKR[dR]QR[dR]RPTDL[dR]L[dW] [SEQ ID NO: 181] | 294 nM | 47.6 nM | – | –
[dR]KKR[dR]QRR[dR]RPTDL[dR]L[dW] [SEQ ID NO: 180] | 265 nM | 47 nM | – | –
[dR]KKR[dR]QRR[dR]GKRKALKL[dF] [SEQ ID NO: 188] | 1420 nM | 36.1 nM | – | –
[dR]KKR[dR]QR[dR]RP[dA]TLNL[dF] [SEQ ID NO: 183] | 2590 nM | 199 nM | – | –
[dR]KKR[dR]QRR[dR]RP[dK]RPTTL[dR]L[dF] [SEQ ID NO: 173] | 88.4 nM | 16.8 nM | – | –
RKKRRQRRRRPKRPATLNLF [SEQ ID NO: 172] | 722 nM | 102 nM | – | –
[dR]KKR[dR]QRR[dR]GKRKAL[dR]L[dF] [SEQ ID NO: 189] | 22300 nM | 128 nM | – | –
RKKRRQRRR [SEQ ID NO: 46] | – | 8130 nM | – | –
[dR]KKR[dR]QR[dR]KRP[dA]TLNL[dF] [SEQ ID NO: 184] | 2430 nM | 129 nM | – | –
[dR]KKR[dR]QR[dR]RPTTLNL[dF] [SEQ ID NO: 175] | 185 nM | 60.6 nM | – | –
[dR]KKR[dR]QRR[dR]RP[dK]RP[dS]TLNL[dF] [SEQ ID NO: 185] | 766 nM | 35.5 nM | – | –
[dR]KKR[dR]QRR[dR]RP[dA]TLNL[dF] [SEQ ID NO: 182] | 1680 nM | 59.4 nM | – | –
